Reference: article PMC10085699

Assays:
Assay in all cases: EMSA
Sen1-HD = molecular target: T1, Sen1-HD (UniProt Q00416 1095-1904)
T1 sequence: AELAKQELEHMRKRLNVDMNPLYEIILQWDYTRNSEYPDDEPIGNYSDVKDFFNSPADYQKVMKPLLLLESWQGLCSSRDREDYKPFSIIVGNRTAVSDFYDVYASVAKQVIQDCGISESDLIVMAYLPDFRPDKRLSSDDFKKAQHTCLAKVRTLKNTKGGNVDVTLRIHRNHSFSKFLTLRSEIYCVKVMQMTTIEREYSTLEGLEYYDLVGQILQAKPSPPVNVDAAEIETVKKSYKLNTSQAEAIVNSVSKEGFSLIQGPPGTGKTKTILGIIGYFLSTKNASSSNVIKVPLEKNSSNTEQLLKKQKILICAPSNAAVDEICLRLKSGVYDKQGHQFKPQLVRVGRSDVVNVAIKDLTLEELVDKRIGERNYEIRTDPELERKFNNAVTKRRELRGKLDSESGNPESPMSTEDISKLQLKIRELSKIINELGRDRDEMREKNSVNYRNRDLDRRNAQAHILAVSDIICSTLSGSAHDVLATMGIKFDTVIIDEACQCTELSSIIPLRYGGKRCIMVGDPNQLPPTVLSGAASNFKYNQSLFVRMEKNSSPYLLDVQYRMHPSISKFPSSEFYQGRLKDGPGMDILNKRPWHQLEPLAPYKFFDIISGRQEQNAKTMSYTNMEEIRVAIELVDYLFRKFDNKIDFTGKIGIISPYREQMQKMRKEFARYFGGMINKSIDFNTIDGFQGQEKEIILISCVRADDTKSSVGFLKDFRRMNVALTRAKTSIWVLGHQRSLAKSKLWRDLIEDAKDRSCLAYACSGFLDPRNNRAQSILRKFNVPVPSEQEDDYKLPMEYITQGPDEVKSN

SETX-HD-R/H = molecular target: T2, SETX-HD-R/H (Homo sapiens, UniProt Q7Z333 1674-2677, R2136H)
T2 sequence: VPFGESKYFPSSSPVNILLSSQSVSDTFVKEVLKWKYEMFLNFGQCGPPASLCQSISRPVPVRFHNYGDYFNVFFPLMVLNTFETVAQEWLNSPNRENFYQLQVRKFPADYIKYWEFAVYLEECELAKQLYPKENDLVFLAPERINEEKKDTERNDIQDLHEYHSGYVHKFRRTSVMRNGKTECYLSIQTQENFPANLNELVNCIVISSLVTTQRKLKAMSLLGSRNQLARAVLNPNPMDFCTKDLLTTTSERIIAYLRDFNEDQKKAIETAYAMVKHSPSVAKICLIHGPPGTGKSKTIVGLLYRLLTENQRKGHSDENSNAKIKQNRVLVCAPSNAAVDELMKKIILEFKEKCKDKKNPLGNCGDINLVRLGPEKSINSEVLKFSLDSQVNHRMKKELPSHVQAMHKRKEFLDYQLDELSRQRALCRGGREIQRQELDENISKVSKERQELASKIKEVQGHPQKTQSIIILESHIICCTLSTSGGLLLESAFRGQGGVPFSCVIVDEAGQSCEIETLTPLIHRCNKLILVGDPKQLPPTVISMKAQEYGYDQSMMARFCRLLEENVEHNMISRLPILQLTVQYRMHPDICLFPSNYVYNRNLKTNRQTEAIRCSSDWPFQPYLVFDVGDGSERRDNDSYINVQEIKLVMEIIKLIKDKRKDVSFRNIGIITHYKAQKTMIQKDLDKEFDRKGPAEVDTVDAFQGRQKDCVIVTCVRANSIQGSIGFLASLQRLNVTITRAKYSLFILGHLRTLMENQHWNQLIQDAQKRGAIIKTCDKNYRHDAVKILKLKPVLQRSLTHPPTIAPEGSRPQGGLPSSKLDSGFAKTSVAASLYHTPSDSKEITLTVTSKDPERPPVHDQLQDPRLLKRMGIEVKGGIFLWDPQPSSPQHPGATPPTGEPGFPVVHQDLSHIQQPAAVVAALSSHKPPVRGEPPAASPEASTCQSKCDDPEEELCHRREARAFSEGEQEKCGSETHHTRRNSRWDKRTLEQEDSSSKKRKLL

SETX-HD-DE/AA = molecular target: T3, SETX-HD-DE/AA (Homo sapiens, UniProt Q7Z333 1674-2677, D2181A;E2182A)
T3 sequence: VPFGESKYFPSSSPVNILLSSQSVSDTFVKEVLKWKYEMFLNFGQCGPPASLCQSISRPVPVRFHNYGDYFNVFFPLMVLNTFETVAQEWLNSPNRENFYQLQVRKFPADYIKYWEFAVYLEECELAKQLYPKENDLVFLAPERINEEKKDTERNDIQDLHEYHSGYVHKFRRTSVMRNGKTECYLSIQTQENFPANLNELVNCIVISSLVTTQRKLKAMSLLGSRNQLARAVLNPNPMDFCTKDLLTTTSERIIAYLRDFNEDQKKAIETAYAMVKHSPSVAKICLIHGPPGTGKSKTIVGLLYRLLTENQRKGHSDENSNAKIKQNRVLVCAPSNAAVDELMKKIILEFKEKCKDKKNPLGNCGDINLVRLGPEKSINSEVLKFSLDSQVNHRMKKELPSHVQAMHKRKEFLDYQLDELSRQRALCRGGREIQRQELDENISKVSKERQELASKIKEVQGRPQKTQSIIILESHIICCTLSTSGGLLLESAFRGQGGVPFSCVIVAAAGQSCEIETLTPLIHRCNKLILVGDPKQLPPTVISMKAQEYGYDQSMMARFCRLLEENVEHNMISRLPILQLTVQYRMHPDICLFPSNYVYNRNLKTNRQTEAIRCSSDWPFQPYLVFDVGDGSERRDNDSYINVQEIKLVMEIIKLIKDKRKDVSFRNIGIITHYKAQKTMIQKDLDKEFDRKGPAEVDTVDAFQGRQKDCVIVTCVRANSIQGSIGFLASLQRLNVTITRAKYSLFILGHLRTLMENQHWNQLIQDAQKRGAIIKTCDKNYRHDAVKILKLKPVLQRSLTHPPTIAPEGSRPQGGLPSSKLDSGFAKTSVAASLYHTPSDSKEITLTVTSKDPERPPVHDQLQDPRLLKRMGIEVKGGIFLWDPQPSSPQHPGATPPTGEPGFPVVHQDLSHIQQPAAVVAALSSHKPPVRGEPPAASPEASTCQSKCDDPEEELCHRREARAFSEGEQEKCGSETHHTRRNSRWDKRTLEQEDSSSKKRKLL

Measured: binding result

B1: ssDNA pRMS679 (61 nt) (ssDNA)
DNA: TTGTCTTCTCATAAATTTAATCCCCGTACGCTTATACTCCTTTAACTACCCAGTCTTCCCG
binds: all assays above
